Assay results taken from patent US20230235012A1 (ALPINE IMMUNE SCIENCES, published 2023).
Positions count from the first letter of the chain named. Names may count otherwise.

T1: human ICOS (human, UniProt Q9Y6W8 21-199)
T1 construct: whole, on cells
T1 sequence (looked up): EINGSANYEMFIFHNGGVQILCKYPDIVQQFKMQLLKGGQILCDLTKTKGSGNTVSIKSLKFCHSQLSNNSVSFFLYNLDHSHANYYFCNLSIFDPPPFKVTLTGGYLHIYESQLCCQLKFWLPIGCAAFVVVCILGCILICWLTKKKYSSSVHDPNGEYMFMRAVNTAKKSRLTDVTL

T2: human ICOS, full-length, expressed on transfected Expi293 cells (human, UniProt Q9Y6W8 21-199)
T2 construct: whole, on cells
T2 sequence (looked up): T1 sequence (looked up)

B1: ICOSL ECD Truncation #6 with N52H/N57Y/Q100R/F172S, Fc fusion (Fc fusion)
chain: DTQEKEVRAMVGSDVELSCACPEGSRFDLNDVYVYWQTSESKTVVTYHIPQHSSLEYVDSRYRNRALMSPAGMLRGDFSLRLFNVTPQDEQKFHCLVLSRSLGFQEVLSVEVTLHVAANFSVPVVSAPHSPSQDELTFTCTSINGYPRPNVYWINKTDNSLLDQALQNDTVSLNMRGLYDVVSVLRIARTPSVNIGCCIENVLLGGGGSGGGGSEPKSSDKTHTCPPCPAPEAEGAPSVFLFPPKPKDTLMISRTPEVTCVVVDVSHEDPEVKFNWYVDGVEVHNAKTKPREEQYNSTYRVVSVLTVLHQDWLNGKEYKCKVSNKALPAPIEKTISKAKGQPREPQVYTLPPSREEMTKNQVSLTCLVKGFYPSDIAVEWESNGQPENNYKTTPPVLDSDGSFFLYSKLTVDKSRWQQGNVFSCSVMHEALHNHYTQKSLSLSPG
B2: ICOSL ECD Truncation #6 with N52H/N57Y/Q100R/C198R, Fc fusion (Fc fusion)
chain: B1 chain with S172F, C198R
notes: not restated for the C198R set
B3: ICOSL ECD Truncation #7 with N52H/N57Y/Q100R/C198R and E90K/E111G, Fc fusion (Fc fusion)
chain: DTQEKEVRAMVGSDVELSCACPEGSRFDLNDVYVYWQTSESKTVVTYHIPQHSSLEYVDSRYRNRALMSPAGMLRGDFSLRLFNVTPQDKQKFHCLVLSRSLGFQEVLSVGVTLHVAANFSVPVVSAPHSPSQDELTFTCTSINGYPRPNVYWINKTDNSLLDQALQNDTVFLNMRGLYDVVSVLRIARTPSVNIGCRIENGGGGSGGGGSEPKSSDKTHTCPPCPAPEAEGAPSVFLFPPKPKDTLMISRTPEVTCVVVDVSHEDPEVKFNWYVDGVEVHNAKTKPREEQYNSTYRVVSVLTVLHQDWLNGKEYKCKVSNKALPAPIEKTISKAKGQPREPQVYTLPPSREEMTKNQVSLTCLVKGFYPSDIAVEWESNGQPENNYKTTPPVLDSDGSFFLYSKLTVDKSRWQQGNVFSCSVMHEALHNHYTQKSLSLSPG
notes: as for B2
B4: ICOSL ECD Truncation #7 with N52H/N57Y/Q100R/F172S and F83S, Fc fusion (Fc fusion)
chain: B3 chain with F83S, K90E, G111E, F172S, R198C
B5: ICOSL IgV with N52H/N57Y/Q100R and H48R/S54P, Fc fusion (Fc fusion)
chain: DTQEKEVRAMVGSDVELSCACPEGSRFDLNDVYVYWQTSESKTVVTYRIPQHSPLEYVDSRYRNRALMSPAGMLRGDFSLRLFNVTPQDEQKFHCLVLSRSLGFQEVLSVEVTLHVAANFSVGGGGSGGGGSEPKSSDKTHTCPPCPAPEAEGAPSVFLFPPKPKDTLMISRTPEVTCVVVDVSHEDPEVKFNWYVDGVEVHNAKTKPREEQYNSTYRVVSVLTVLHQDWLNGKEYKCKVSNKALPAPIEKTISKAKGQPREPQVYTLPPSREEMTKNQVSLTCLVKGFYPSDIAVEWESNGQPENNYKTTPPVLDSDGSFFLYSKLTVDKSRWQQGNVFSCSVMHEALHNHYTQKSLSLSPG
B6: ICOSL ECD Truncation #8 with N207G/L208G and N52H/N57Y/Q100R/F172S, Fc fusion (Fc fusion)
chain: DTQEKEVRAMVGSDVELSCACPEGSRFDLNDVYVYWQTSESKTVVTYHIPQHSSLEYVDSRYRNRALMSPAGMLRGDFSLRLFNVTPQDEQKFHCLVLSRSLGFQEVLSVEVTLHVAANFSVPVVSAPHSPSQDELTFTCTSINGYPRPNVYWINKTDNSLLDQALQNDTVSLNMRGLYDVVSVLRIARTPSVNIGCCIENVLLQQGGTGGGGSGGGGSEPKSSDKTHTCPPCPAPEAEGAPSVFLFPPKPKDTLMISRTPEVTCVVVDVSHEDPEVKFNWYVDGVEVHNAKTKPREEQYNSTYRVVSVLTVLHQDWLNGKEYKCKVSNKALPAPIEKTISKAKGQPREPQVYTLPPSREEMTKNQVSLTCLVKGFYPSDIAVEWESNGQPENNYKTTPPVLDSDGSFFLYSKLTVDKSRWQQGNVFSCSVMHEALHNHYTQKSLSLSPG
B7: ICOSL ECD Truncation #4 with N52H/N57Y/Q100R/F172S and E200G, Fc fusion (Fc fusion)
chain: DTQEKEVRAMVGSDVELSCACPEGSRFDLNDVYVYWQTSESKTVVTYHIPQHSSLEYVDSRYRNRALMSPAGMLRGDFSLRLFNVTPQDEQKFHCLVLSRSLGFQEVLSVEVTLHVAANFSVPVVSAPHSPSQDELTFTCTSINGYPRPNVYWINKTDNSLLDQALQNDTVSLNMRGLYDVVSVLRIARTPSVNIGCCIGNVLLQQNGGGGSGGGGSEPKSSDKTHTCPPCPAPEAEGAPSVFLFPPKPKDTLMISRTPEVTCVVVDVSHEDPEVKFNWYVDGVEVHNAKTKPREEQYNSTYRVVSVLTVLHQDWLNGKEYKCKVSNKALPAPIEKTISKAKGQPREPQVYTLPPSREEMTKNQVSLTCLVKGFYPSDIAVEWESNGQPENNYKTTPPVLDSDGSFFLYSKLTVDKSRWQQGNVFSCSVMHEALHNHYTQKSLSLSPG
B8: variant ICOSL ECD-Fc fusion, full length N52H/N57Y/Q100R/F172S (Fc fusion, not shown: a dimerising Fc or GST)
chain: DTQEKEVRAMVGSDVELSCACPEGSRFDLNDVYVYWQTSESKTVVTYHIPQHSSLEYVDSRYRNRALMSPAGMLRGDFSLRLFNVTPQDEQKFHCLVLSRSLGFQEVLSVEVTLHVAANFSVPVVSAPHSPSQDELTFTCTSINGYPRPNVYWINKTDNSLLDQALQNDTVSLNMRGLYDVVSVLRIARTPSVNIGCCIENVLLQQNLTVGSQTGNDIGERDKITENPVSTGEKNAAT
B9: variant ICOSL IgV-Fc fusion N52H/N57Y/Q100R (Fc fusion, not shown: a dimerising Fc or GST)
chain: DTQEKEVRAMVGSDVELSCACPEGSRFDLNDVYVYWQTSESKTVVTYHIPQHSSLEYVDSRYRNRALMSPAGMLRGDFSLRLFNVTPQDEQKFHCLVLSRSLGFQEVLSVEVTLHVAANFSV
B10: variant ICOSL IgV-Fc fusion N52S/N57L/Q100S (Fc fusion)
chain: DTQEKEVRAMVGSDVELSCACPEGSRFDLNDVYVYWQTSESKTVVTYHIPQSSSLELVDSRYRNRALMSPAGMLRGDFSLRLFNVTPQDEQKFHCLVLSSSLGFQEVLSVEVTLHVAANFSVGSGGGGSEPKSSDKTHTCPPCPAPEAEGAPSVFLFPPKPKDTLMISRTPEVTCVVVDVSHEDPEVKFNWYVDGVEVHNAKTKPREEQYNSTYRVVSVLTVLHQDWLNGKEYKCKVSNKALPAPIEKTISKAKGQPREPQVYTLPPSREEMTKNQVSLTCLVKGFYPSDIAVEWESNGQPENNYKTTPPVLDSDGSFFLYSKLTVDKSRWQQGNVFSCSVMHEALHNHYTQKSLSLSPG
B11: variant ICOSL IgV-Fc fusion N57Q/Q100P (Fc fusion)
chain: B10 chain with S52N, L57Q, S100P
B12: variant ICOSL IgV-Fc fusion N52S/N57M/Q100S (Fc fusion)
chain: B10 chain with L57M
B13: variant ICOSL IgV-Fc fusion N52T/N57H/Q100A (Fc fusion)
chain: B10 chain with S52T, L57H, S100A
B14: variant ICOSL IgV-Fc fusion N52S/N57Y/Q100S (Fc fusion)
chain: B10 chain with L57Y
B15: variant ICOSL IgV-Fc fusion N52S/N57Y/Q100V (Fc fusion)
chain: B10 chain with L57Y, S100V
B16: variant ICOSL IgV-Fc fusion N52V/N57T/Q100L (Fc fusion)
chain: B10 chain with S52V, L57T, S100L
B17: variant ICOSL IgV-Fc fusion N52S/N57Y/Q100M (Fc fusion)
chain: B10 chain with L57Y, S100M
B18: variant ICOSL IgV-Fc fusion N52T/N57H/Q100S (Fc fusion)
chain: B10 chain with S52T, L57H

target: T3, human CTLA-4 (human, UniProt P16410 36-223); test: flow cytometry, transfected cells; protein from CHO
T3 construct: whole, on cells
T3 sequence (P16410 36-223): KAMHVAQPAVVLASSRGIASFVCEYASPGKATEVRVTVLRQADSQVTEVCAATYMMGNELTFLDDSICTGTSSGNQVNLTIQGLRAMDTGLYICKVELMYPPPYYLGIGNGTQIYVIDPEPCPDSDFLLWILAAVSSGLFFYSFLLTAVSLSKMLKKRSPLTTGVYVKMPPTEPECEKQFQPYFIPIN

MFI	MFI ratio to WT	Binder
240000 MFI	31.6 fold	B1
236000 MFI	31.1 fold	B2
83700 MFI	11 fold	B3
207000 MFI	27.3 fold	B4
322000 MFI	42.4 fold	B5
308000 MFI	40.7 fold	B6
320000 MFI	42.3 fold	B7

target: T1, human ICOS; test: as above

MFI	MFI ratio to WT	Binder
90100 MFI	0.9 fold	B1
91400 MFI	0.9 fold	B2
54600 MFI	0.5 fold	B3
106000 MFI	1.1 fold	B4
143000 MFI	1.4 fold	B5
133000 MFI	1.3 fold	B6
108000 MFI	1.1 fold	B7

target: T4, human CD28 (human, UniProt P10747 19-220); test: as above
T4 construct: whole, on cells

MFI	MFI ratio to WT	Binder
91300 MFI	52.8 fold	B1
84600 MFI	49 fold	B2
38900 MFI	22.5 fold	B3
88300 MFI	51.1 fold	B4
75300 MFI	43.6 fold	B5
108000 MFI	62.4 fold	B6
80600 MFI	46.6 fold	B7

target: T5, human CD28, full-length, expressed on transfected Expi293 cells (human, UniProt P10747 19-220); test: flow cytometry, 100 nM, Expi293 cells with human CD28
T5 construct: whole, on cells

MFI	MFI ratio to WT (ΔWT)	Binder
138000 MFI	6.2 fold	B8
142000 MFI	6.4 fold	B9
108000 MFI	4.8 fold	B10
15200 MFI	0.7 fold	B11
134000 MFI	6 fold	B12
113000 MFI	5 fold	B13
161000 MFI	7.2 fold	B14
126000 MFI	5.7 fold	B15
6200 MFI	0.3 fold	B16
157000 MFI	7 fold	B17
143000 MFI	6.4 fold	B18

target: T2, human ICOS, full-length, expressed on …; test: flow cytometry, 100 nM, Expi293 cells with human ICOS

MFI	MFI ratio to WT (ΔWT)	Binder
238000 MFI	1.12 fold	B8
200000 MFI	0.94 fold	B9
269000 MFI	1.27 fold	B10
205000 MFI	0.97 fold	B11
312000 MFI	1.47 fold	B12
220000 MFI	1.04 fold	B13
224000 MFI	1.06 fold	B14
219000 MFI	1.03 fold	B15
29200 MFI	0.14 fold	B16
303000 MFI	1.43 fold	B17
259000 MFI	1.22 fold	B18

target: T6, human CTLA-4, full-length, expressed on transfected Expi293 cells (human, UniProt P16410 36-223); test: flow cytometry, 100 nM, Expi293 cells with human CTLA-4
T6 construct: whole, on cells
T6 sequence (P16410 36-223): as above

MFI	MFI ratio to WT (ΔWT)	Binder
606000 MFI	1.83 fold	B8
817000 MFI	2.47 fold	B9
197000 MFI	0.6 fold	B10
69100 MFI	0.21 fold	B11
228000 MFI	0.69 fold	B12
350000 MFI	1.06 fold	B13
205000 MFI	0.62 fold	B14
305000 MFI	0.92 fold	B15
11500 MFI	0.03 fold	B16
395000 MFI	1.2 fold	B17
378000 MFI	1.14 fold	B18
